Data as given in patent publication US20110020346A1.

Experiments:
mouse VEGF-A165 (mouse) = mouse VEGF-A165 (mouse) (UniProt Q00731); assay: ELISA with purified Fab (direct on coated antigen or solution binding), 25 C
[1] = target: T1, murine VEGF (mVEGF) (mouse) (UniProt Q00731); assay: method not stated, 25 C, unpublished results
T1 sequence (looked up): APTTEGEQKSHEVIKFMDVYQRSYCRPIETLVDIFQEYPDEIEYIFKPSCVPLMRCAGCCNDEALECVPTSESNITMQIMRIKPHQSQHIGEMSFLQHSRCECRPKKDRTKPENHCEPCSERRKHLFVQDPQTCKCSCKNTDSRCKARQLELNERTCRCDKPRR

Sequence of Y0317 Fab (VH): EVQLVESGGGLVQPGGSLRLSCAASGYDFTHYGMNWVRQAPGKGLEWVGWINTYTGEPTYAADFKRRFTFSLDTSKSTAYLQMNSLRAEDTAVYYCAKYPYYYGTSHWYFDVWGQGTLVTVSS
Sequence of Y0317 Fab (VL): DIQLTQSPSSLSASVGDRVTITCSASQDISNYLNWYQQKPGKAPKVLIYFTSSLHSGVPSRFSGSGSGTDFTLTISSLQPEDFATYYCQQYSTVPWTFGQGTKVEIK

value printed without a name (ELISA) (mouse VEGF-A165 (mouse)) [nM] | Kd [1] [nM] | Substance
0.6 |  | G6 Fab
 | 300 | Y0317 Fab
